Consider one molecule from publication doi:10.1101/596171.

This series concerns the target T1, HIS-GST-Nxf3 (66-336), RRM-LRR domain (Drosophila melanogaster, UniProt Q8IQK4 66-336).
T1 sequence: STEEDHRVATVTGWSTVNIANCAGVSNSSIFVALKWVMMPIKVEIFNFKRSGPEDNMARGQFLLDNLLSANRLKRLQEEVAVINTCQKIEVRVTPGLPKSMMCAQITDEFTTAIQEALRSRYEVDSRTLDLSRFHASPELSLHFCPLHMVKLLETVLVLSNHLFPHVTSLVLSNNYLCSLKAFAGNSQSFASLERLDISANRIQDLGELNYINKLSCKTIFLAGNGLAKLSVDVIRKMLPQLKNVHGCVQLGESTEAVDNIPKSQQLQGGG
Briefly: EMSA. For orientation: A gel shift assay detects complexes by their altered migration in electrophoresis.

In the case of CUCAUCUUGGUCGUACGCGGAAUAGUUUAAACUGU (ssRNA) [35 nt ssRNA], the binding result is on record as “binds”.
